{"source": "patent US7256012B2", "about": "“Fluorogenic protease substrates based on dye-dimerization” (3M Innovative Properties Company, priority 1997, dated 2007)", "molecular_target": "T1, trypsin (Bos taurus, UniProt P00760)", "T1 construct": "gene PRSS1", "T1 sequence (P00760 24-246)": "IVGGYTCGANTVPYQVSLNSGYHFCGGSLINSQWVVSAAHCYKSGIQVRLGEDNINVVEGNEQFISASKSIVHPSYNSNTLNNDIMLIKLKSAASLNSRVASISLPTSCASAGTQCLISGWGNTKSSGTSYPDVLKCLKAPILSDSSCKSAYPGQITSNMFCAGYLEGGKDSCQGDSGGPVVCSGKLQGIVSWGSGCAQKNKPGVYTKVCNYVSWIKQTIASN", "assay": "Hydrolysis of fluorogenic protease substrate by purified enzyme (trypsin), fluorescence intensity", "format": "biochemical", "conditions": "for Average ratio w/ trypsin to w/o trypsin: average over emission 570-585 nm", "protocol": "Enzymatic hydrolysis of the substrate from Example 1 was carried out in 50 mM carbonate buffer, pH 8.9 at room temperature. Fluorescence intensity of the solution prior to treatment with trypsin and after treatment with trypsin is shown in Table 1, for excitation wavelengths of 360 nm, 522 nm, 530 nm, and 553 nm, respectively. […] This is a characteristic of dye dimerization or stacking, as described above. […] Both the fluorescence and absorption results provided convincing evidence that ground-state interactions existed between dye molecules in the conjugate and became diminished after enzymatic cleavage.", "key": {"[1]": {"conditions": "Excitation 530 nm, emission 570 nm"}, "[2]": {"conditions": "Excitation 530 nm, emission 571 nm"}, "[3]": {"conditions": "Excitation 530 nm, emission 572 nm"}, "[4]": {"conditions": "Excitation 530 nm, emission 573 nm"}, "[5]": {"conditions": "Excitation 530 nm, emission 574 nm"}, "[6]": {"conditions": "Excitation 530 nm, emission 575 nm"}, "[7]": {"conditions": "Excitation 530 nm, emission 576 nm"}, "[8]": {"conditions": "Excitation 530 nm, emission 577 nm"}, "[9]": {"conditions": "Excitation 530 nm, emission 578 nm"}, "[10]": {"conditions": "Excitation 530 nm, emission 579 nm"}, "[11]": {"conditions": "Excitation 530 nm, emission 580 nm"}, "[12]": {"conditions": "Excitation 530 nm, emission 581 nm"}, "[13]": {"conditions": "Excitation 530 nm, emission 582 nm"}, "[14]": {"conditions": "Excitation 530 nm, emission 583 nm"}, "[15]": {"conditions": "Excitation 530 nm, emission 584 nm"}, "[16]": {"conditions": "Excitation 530 nm, emission 585 nm"}, "[17]": {"conditions": "Excitation 553 nm, emission 570 nm"}, "[18]": {"conditions": "Excitation 553 nm, emission 571 nm"}, "[19]": {"conditions": "Excitation 553 nm, emission 572 nm"}, "[20]": {"conditions": "Excitation 553 nm, emission 573 nm"}, "[21]": {"conditions": "Excitation 553 nm, emission 574 nm"}, "[22]": {"conditions": "Excitation 553 nm, emission 575 nm"}, "[23]": {"conditions": "Excitation 553 nm, emission 576 nm"}, "[24]": {"conditions": "Excitation 553 nm, emission 577 nm"}, "[25]": {"conditions": "Excitation 553 nm, emission 578 nm"}, "[26]": {"conditions": "Excitation 553 nm, emission 579 nm"}, "[27]": {"conditions": "Excitation 553 nm, emission 580 nm"}, "[28]": {"conditions": "Excitation 553 nm, emission 581 nm"}, "[29]": {"conditions": "Excitation 553 nm, emission 582 nm"}, "[30]": {"conditions": "Excitation 553 nm, emission 583 nm"}, "[31]": {"conditions": "Excitation 553 nm, emission 584 nm"}, "[32]": {"conditions": "Excitation 553 nm, emission 585 nm"}}}
{"substance": "TMR-Val-Pro-Arg-Gly-Lys-TMR (XPRGX; not fully specified; TMR dye at both ends) [T-VPRGK-T]", "values": [{"measurement": "Average ratio w/ trypsin to w/o trypsin", "setting": "Excitation 530 nm", "value": 27}, {"measurement": "Fluorescence intensity w/ trypsin", "setting": "[1]", "value": 46615}, {"measurement": "Fluorescence intensity w/o trypsin", "setting": "[1]", "value": 1687}, {"measurement": "ratio w/ trypsin to w/o trypsin", "setting": "[1]", "value": 28}, {"measurement": "Fluorescence intensity w/ trypsin", "setting": "[2]", "value": 48314}, {"measurement": "Fluorescence intensity w/o trypsin", "setting": "[2]", "value": 1718}, {"measurement": "ratio w/ trypsin to w/o trypsin", "setting": "[2]", "value": 28}, {"measurement": "Fluorescence intensity w/ trypsin", "setting": "[3]", "value": 49955}, {"measurement": "Fluorescence intensity w/o trypsin", "setting": "[3]", "value": 1819}, {"measurement": "ratio w/ trypsin to w/o trypsin", "setting": "[3]", "value": 27}, {"measurement": "Fluorescence intensity w/ trypsin", "setting": "[4]", "value": 50871}, {"measurement": "Fluorescence intensity w/o trypsin", "setting": "[4]", "value": 1844}, {"measurement": "ratio w/ trypsin to w/o trypsin", "setting": "[4]", "value": 28}, {"measurement": "Fluorescence intensity w/ trypsin", "setting": "[5]", "value": 52163}, {"measurement": "Fluorescence intensity w/o trypsin", "setting": "[5]", "value": 1904}, {"measurement": "ratio w/ trypsin to w/o trypsin", "setting": "[5]", "value": 27}, {"measurement": "Fluorescence intensity w/ trypsin", "setting": "[6]", "value": 52681}, {"measurement": "Fluorescence intensity w/o trypsin", "setting": "[6]", "value": 1895}, {"measurement": "ratio w/ trypsin to w/o trypsin", "setting": "[6]", "value": 28}, {"measurement": "Fluorescence intensity w/ trypsin", "setting": "[7]", "value": 52855}, {"measurement": "Fluorescence intensity w/o trypsin", "setting": "[7]", "value": 1968}, {"measurement": "ratio w/ trypsin to w/o trypsin", "setting": "[7]", "value": 27}, {"measurement": "Fluorescence intensity w/ trypsin", "setting": "[8]", "value": 53752}, {"measurement": "Fluorescence intensity w/o trypsin", "setting": "[8]", "value": 1939}, {"measurement": "ratio w/ trypsin to w/o trypsin", "setting": "[8]", "value": 28}, {"measurement": "Fluorescence intensity w/ trypsin", "setting": "[9]", "value": 53611}, {"measurement": "Fluorescence intensity w/o trypsin", "setting": "[9]", "value": 1970}, {"measurement": "ratio w/ trypsin to w/o trypsin", "setting": "[9]", "value": 27}, {"measurement": "Fluorescence intensity w/ trypsin", "setting": "[10]", "value": 53534}, {"measurement": "Fluorescence intensity w/o trypsin", "setting": "[10]", "value": 2026}, {"measurement": "ratio w/ trypsin to w/o trypsin", "setting": "[10]", "value": 26}, {"measurement": "Fluorescence intensity w/ trypsin", "setting": "[11]", "value": 53414}, {"measurement": "Fluorescence intensity w/o trypsin", "setting": "[11]", "value": 1973}, {"measurement": "ratio w/ trypsin to w/o trypsin", "setting": "[11]", "value": 27}, {"measurement": "Fluorescence intensity w/ trypsin", "setting": "[12]", "value": 53190}, {"measurement": "Fluorescence intensity w/o trypsin", "setting": "[12]", "value": 1985}, {"measurement": "ratio w/ trypsin to w/o trypsin", "setting": "[12]", "value": 27}, {"measurement": "Fluorescence intensity w/ trypsin", "setting": "[13]", "value": 52569}, {"measurement": "Fluorescence intensity w/o trypsin", "setting": "[13]", "value": 1948}, {"measurement": "ratio w/ trypsin to w/o trypsin", "setting": "[13]", "value": 27}, {"measurement": "Fluorescence intensity w/ trypsin", "setting": "[14]", "value": 51719}, {"measurement": "Fluorescence intensity w/o trypsin", "setting": "[14]", "value": 1926}, {"measurement": "ratio w/ trypsin to w/o trypsin", "setting": "[14]", "value": 27}, {"measurement": "Fluorescence intensity w/ trypsin", "setting": "[15]", "value": 50705}, {"measurement": "Fluorescence intensity w/o trypsin", "setting": "[15]", "value": 1905}, {"measurement": "ratio w/ trypsin to w/o trypsin", "setting": "[15]", "value": 27}, {"measurement": "Fluorescence intensity w/ trypsin", "setting": "[16]", "value": 49629}, {"measurement": "Fluorescence intensity w/o trypsin", "setting": "[16]", "value": 1820}, {"measurement": "ratio w/ trypsin to w/o trypsin", "setting": "[16]", "value": 27}, {"measurement": "Average ratio w/ trypsin to w/o trypsin", "setting": "Excitation 553 nm", "value": 25}, {"measurement": "Fluorescence intensity w/ trypsin", "setting": "[17]", "value": 82385}, {"measurement": "Fluorescence intensity w/o trypsin", "setting": "[17]", "value": 3301}, {"measurement": "ratio w/ trypsin to w/o trypsin", "setting": "[17]", "value": 25}, {"measurement": "Fluorescence intensity w/ trypsin", "setting": "[18]", "value": 85120}, {"measurement": "Fluorescence intensity w/o trypsin", "setting": "[18]", "value": 3402}, {"measurement": "ratio w/ trypsin to w/o trypsin", "setting": "[18]", "value": 25}, {"measurement": "Fluorescence intensity w/ trypsin", "setting": "[19]", "value": 87845}, {"measurement": "Fluorescence intensity w/o trypsin", "setting": "[19]", "value": 3457}, {"measurement": "ratio w/ trypsin to w/o trypsin", "setting": "[19]", "value": 25}, {"measurement": "Fluorescence intensity w/ trypsin", "setting": "[20]", "value": 89719}, {"measurement": "Fluorescence intensity w/o trypsin", "setting": "[20]", "value": 3658}, {"measurement": "ratio w/ trypsin to w/o trypsin", "setting": "[20]", "value": 25}, {"measurement": "Fluorescence intensity w/ trypsin", "setting": "[21]", "value": 91555}, {"measurement": "Fluorescence intensity w/o trypsin", "setting": "[21]", "value": 3649}, {"measurement": "ratio w/ trypsin to w/o trypsin", "setting": "[21]", "value": 25}, {"measurement": "Fluorescence intensity w/ trypsin", "setting": "[22]", "value": 93001}, {"measurement": "Fluorescence intensity w/o trypsin", "setting": "[22]", "value": 3802}, {"measurement": "ratio w/ trypsin to w/o trypsin", "setting": "[22]", "value": 24}, {"measurement": "Fluorescence intensity w/ trypsin", "setting": "[23]", "value": 94046}, {"measurement": "Fluorescence intensity w/o trypsin", "setting": "[23]", "value": 3827}, {"measurement": "ratio w/ trypsin to w/o trypsin", "setting": "[23]", "value": 25}, {"measurement": "Fluorescence intensity w/ trypsin", "setting": "[24]", "value": 94816}, {"measurement": "Fluorescence intensity w/o trypsin", "setting": "[24]", "value": 3816}, {"measurement": "ratio w/ trypsin to w/o trypsin", "setting": "[24]", "value": 25}, {"measurement": "Fluorescence intensity w/ trypsin", "setting": "[25]", "value": 94516}, {"measurement": "Fluorescence intensity w/o trypsin", "setting": "[25]", "value": 3806}, {"measurement": "ratio w/ trypsin to w/o trypsin", "setting": "[25]", "value": 25}, {"measurement": "Fluorescence intensity w/ trypsin", "setting": "[26]", "value": 94662}, {"measurement": "Fluorescence intensity w/o trypsin", "setting": "[26]", "value": 3962}, {"measurement": "ratio w/ trypsin to w/o trypsin", "setting": "[26]", "value": 24}, {"measurement": "Fluorescence intensity w/ trypsin", "setting": "[27]", "value": 93715}, {"measurement": "Fluorescence intensity w/o trypsin", "setting": "[27]", "value": 3695}, {"measurement": "ratio w/ trypsin to w/o trypsin", "setting": "[27]", "value": 25}, {"measurement": "Fluorescence intensity w/ trypsin", "setting": "[28]", "value": 93189}, {"measurement": "Fluorescence intensity w/o trypsin", "setting": "[28]", "value": 3825}, {"measurement": "ratio w/ trypsin to w/o trypsin", "setting": "[28]", "value": 24}, {"measurement": "Fluorescence intensity w/ trypsin", "setting": "[29]", "value": 92281}, {"measurement": "Fluorescence intensity w/o trypsin", "setting": "[29]", "value": 3736}, {"measurement": "ratio w/ trypsin to w/o trypsin", "setting": "[29]", "value": 25}, {"measurement": "Fluorescence intensity w/ trypsin", "setting": "[30]", "value": 91125}, {"measurement": "Fluorescence intensity w/o trypsin", "setting": "[30]", "value": 3724}, {"measurement": "ratio w/ trypsin to w/o trypsin", "setting": "[30]", "value": 24}, {"measurement": "Fluorescence intensity w/ trypsin", "setting": "[31]", "value": 89415}, {"measurement": "Fluorescence intensity w/o trypsin", "setting": "[31]", "value": 3593}, {"measurement": "ratio w/ trypsin to w/o trypsin", "setting": "[31]", "value": 25}, {"measurement": "Fluorescence intensity w/ trypsin", "setting": "[32]", "value": 87910}, {"measurement": "Fluorescence intensity w/o trypsin", "setting": "[32]", "value": 3449}, {"measurement": "ratio w/ trypsin to w/o trypsin", "setting": "[32]", "value": 25}, {"measurement": "fluorescence intensity of the cleaved substrate solution relative to the intact substrate solution (maximum)", "setting": "excitation 360-553 nm, emission wavelengths from 570 to 585 nm", "value": "≤ 29", "unit": "times"}]}
